The chains are these.
T1: hPAR4 (Biotin) (human, biotin on the C-terminal lysine (GGGGSK-biotin, SKB))
T1 construct: also called hPAR4 biotinylated peptide; Human PAR4 peptide (biotinylated)
T1 peptide: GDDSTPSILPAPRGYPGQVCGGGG

T2: hPAR1 (Biotin) (human, biotin on the C-terminal lysine (GGGGSK-biotin, SKB))
T2 construct: also called hPAR1 peptide
T2 peptide: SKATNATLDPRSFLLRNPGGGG

T3: hPAR3 (Biotin) (human, biotin on the C-terminal lysine (GGGGSK-biotin, SKB))
T3 construct: also called hPAR3 peptide
T3 peptide: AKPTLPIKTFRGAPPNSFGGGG

T4: hPAR2 (Biotin) (human, biotin on the C-terminal lysine (GGGGSK-biotin, SKB))
T4 construct: also called hPAR2 peptide
T4 peptide: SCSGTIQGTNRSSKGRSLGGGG

T5: human PAR4 on isolated human platelets (human, UniProt Q96RI0 18-385)
T5 construct: Native receptor of donor platelets (genotypes AA, AT, TT at residue 120); also called hPAR4
T5 sequence: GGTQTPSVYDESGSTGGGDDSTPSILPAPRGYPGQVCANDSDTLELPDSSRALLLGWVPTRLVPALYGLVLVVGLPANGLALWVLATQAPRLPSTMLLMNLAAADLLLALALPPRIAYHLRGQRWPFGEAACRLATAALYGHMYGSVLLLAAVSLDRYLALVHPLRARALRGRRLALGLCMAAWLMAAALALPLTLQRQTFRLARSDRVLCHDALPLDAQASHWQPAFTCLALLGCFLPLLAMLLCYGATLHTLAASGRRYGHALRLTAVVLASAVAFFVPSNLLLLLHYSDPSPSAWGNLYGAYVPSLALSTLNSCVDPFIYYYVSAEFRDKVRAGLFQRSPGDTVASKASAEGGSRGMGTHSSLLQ

B1: 5A.RC3 (antibody, IgG2a, V domains shown)
VH: QVQLVESGGGVVQPGRSLRLSCAASGFTLSNYGMHWVRQAPGKGLEWVSVIWYDGSNKHYADSVKGRFTISRDNSKNTLYLQMNSLRAEDTAVYYCARESIVEVLPPFDYWGQGTLVTVSS
VL: KIVLTQSPGTLSLSPGERVTLSCRASQRVRNNYLAWFQQKPGQAPRLFIYGASSRATGIPDRFSGSGSGTDFIFTISRLEPEDFAVYYCQQYGNSYTFGQGTKLEIK
notes: Human variable regions on mouse constant regions (HumAb mice); isotype IgG2a/κ; also called 5A.RC3.F10b.H4b; MoB5A-RC3.F10b.H4b
B2: 5I.RG1 (antibody, IgG3, V domains shown)
VH: QVQLQQWGAGLLKPSETLSLACAISSGSFSTYFWRWIRQPPGKGLEWIGEIIHTGSTTYNPSLKSRVTISVDTSKNQLSLKLSSVTAADTAVYYCAFEYSSSGGYYYGMDVWGQGTTVTVSS
VL: DIQMTQSPSSLSASVGDRVTITCRASQSISSYLNWYQQIPGKAPNLLIYAASSLRSGVPSRFSGSGSGTDFTLTISSLQPEDFATYYCQQTYSTPLTFGGGTKVEIK
notes: Human variable regions on mouse constant regions; isotype IgG3/κ; also called 5I.RG1.D6.C1b; 51.RG1
B3: 5H.RF2 (antibody, IgG2a, V domains shown)
VH: QVQLQQWGAGLLKPSETLALTCAVYGGSLSDYYWSWIRQPPGKGLEWIGEINHSGTTNYNPSLKSRVTISVDTSKKQFSLKLSSVTAADTAVYYCAIEYSNSRGYYYGMDVWGQGTTVTVSS
VL: DIQMTQSPSSLSASAGDRITITCRASQTISNYLNWYQQKPGKAPKLLIYAASSLQSGVPSRFSGSGSGTDFTLTISSLQPEDFASYYCRQNYNTPLTFGGGTKVEIK
notes: Human variable regions on mouse constant regions; isotype IgG2a/κ; also called 5H.RF2.A5b.D3.C2; MoB5H F2
B4: 5H.RH4 (antibody, IgG2b, V domains shown)
VH: QVQLQQWGAGLLKPSETLSLTCAVYGGSFSNYYWSWIHQPPGKGLEWIGEINHSGSTNYNPSLKSRVTISVDTSKKQFSLNLSSVTAADTAVYYCKVEHSSSSGHYYYGMDVWGQGTTVTVSS
VL: B2 VL with S28T, S31Y, I39K, N45K, S53R, R55Q, A84T, T91S, E105G
notes: Human variable regions on mouse constant regions; isotype IgG2b/κ; Tested as parent hybridoma supernatant (MoB5H H4); also called 5H RH4.C8b.A3.A6; MoB5H H4
B5: 5F.RE6 (antibody, IgG2a, V domains shown)
VH: QVQLAESGGGVVQPGRSLRVSCAASGFTFSSYGMHWVRQAPGKGLEWVAVIWYDGTKKYYADSLKGRFTISRDNSKYTLYLQMNSLRADDTALYFCARKGARGITGLDYWGQGTLVTVSS
VL: B3 VL with T28S
notes: Human variable regions on mouse constant regions; isotype IgG2a/κ; Tested as parent hybridoma supernatant (MoB5F E6); also called 5F RE6.D3.E7; MoB5F E6
B6: 5G.RG1 (antibody, IgG1, V domains shown)
VH: QVQLVESGGGVVQPGRSLRLSCVASGFTLSSYGMHWVRQAPGKGLEWVAVIWYDGSSKYYTDSVKGRFDISRDNSKNTLYLQMNILRAEDTAVYYCARETILIGGVPFDYWGQGTLVTVSS
VL: EIVLTQSPGTLSLSPGERATLSCGASQSIRSNYLAWYQQKPGQAPRLLIYGASSRATGTPDRFSGSGSGTDFTLTITRLEPEDFALYYCQQYGRSYTFGQGTKLEIK
notes: Human variable regions on mouse constant regions; isotype IgG1/κ; Tested as parent hybridoma supernatant (MoB5G G1); also called 5G RG1.D3.C2b; MoB5G G1
B7: 5H.RD2 (antibody, IgG1, V domains shown)
VH: EVQLVESGGDLVKPGGSLRLSCSASGFTFFNTWMNWVRQAPGKGLEWVGRVKSKNDGGTKDYAAPVTGRFTISRDDSKDTLYLQMNSLKTEDTAVYYCTTDPHYDFWSAYWGQGTLVTVSS
VL: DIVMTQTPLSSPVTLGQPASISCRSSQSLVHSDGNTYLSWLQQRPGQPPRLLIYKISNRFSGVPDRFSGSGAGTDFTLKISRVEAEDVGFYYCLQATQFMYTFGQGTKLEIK
notes: Human variable regions on mouse constant regions; isotype IgG1/κ; also called 5H.RD2.A7b; MoB5H-RD2.A7b
B8: 5D.RH4 (antibody, IgG2a, V domains shown)
VH: QIQLVESGGGVVQPGRSLRLSCAASGFTFSSDGMHWVRQAPGKGLEWVAVIWFDGRNKYYLDSVKGRFTISRDNSKNTLYLQMNSLRAEDTAVYYCARESSISTRPPFDYWGQGTLVTVSS
VL: not shown
notes: Human variable regions on mouse constant regions; isotype IgG2a/κ; also called 5D.RH4.G7.E6.C7b.G7
B9: 5F.RF3 (antibody, IgG2b, V domains shown)
VH: QVQLVQSGAEVKKPGASVKVSCKTSAYTFTNYGISWVRQAPGQGLEWMGWISPYNGNTNYAQKLQGRVTMTTDTSTRTAYMELRSLRSDDTAVYYCAREYNRSSRGRYYYYGMDVWGQGTTVTVSS
VL: EIVLTQSPGTLSLSPGERATLSCRASQSVSSNYLAWYQKKPGQAPRLLISGASSRATGIPDRFSGSGSGTDFTLTISRLEPEDFAVYYCQQYGSSPWTFGQGTKVEIK
notes: Human variable regions on mouse constant regions; isotype IgG2b/κ; also called 5F.RF3.A7b.C9; MoB5F-RF3.A7b.C9
B10: 5H.RA3 (antibody, IgG2a, V domains shown)
VH: B5 VH with A5V, H35L
VL: not shown
notes: Human variable regions on mouse constant regions; isotype IgG2a/κ; also called 5H.RA3.D3b.A2b; MoB5H A3
B11: 5G.RA1 (antibody, IgG2a, V domains shown)
VH: B6 VH with V23A, L29F, S57N, T61A, D69T, I85S, I101A, I103V, G104R
VL: not shown
notes: Human variable regions on mouse constant regions; isotype IgG2a/κ; also called 5G.RA1.E10.G3; MoB5G A1

Substitutions are numbered along the chain they refer to.

One assay deals with T1, hPAR4 (Biotin). As to the kind of experiment: SPR (Biacore T200), biotinylated hPAR4 peptide on SA chip, mAb as analyte. Background: Surface plasmon resonance follows binding to a sensor surface in real time, without labels.
A word on the Kd: it is the free concentration of one partner at which half of the binding sites on the other are occupied at equilibrium, for simple one-to-one binding. For orientation: koff means the first-order rate constant of dissociation. Higher therefore signals fast dissociation. By kon is commonly meant the second-order rate constant of association. High values mean fast association, low ones slow association. B1 gave a Kd of 0.32 nM, a koff of 0.000417 s⁻¹ and a kon of 1.32e+06 M⁻¹ s⁻¹.

On to B2, for which the Kd came out at 0.36 nM, the koff worked out at 0.000667 s⁻¹ and the kon stood at 1.85e+06 M⁻¹ s⁻¹.

For B3, the affinity, expressed as Kd, was 0.61 nM; the dissociation rate constant (koff) turned out to be 0.00111 s⁻¹; the kon worked out at 1.84e+06 M⁻¹ s⁻¹.

In the next assay the target is T2, hPAR1 (Biotin). As to the kind of experiment: ELISA, hybridoma supernatant. (In an ELISA, binding on a coated surface is turned into a signal by an enzyme label.)
As for B4, the “Binding to PAR1 ratio” value was determined as 1 ratio.

As to B5, the “Binding to PAR1 ratio” value was 1.1 ratio.

For the molecule B2, the “Binding to PAR1 ratio” value is 1 ratio.

With B3, the “Binding to PAR1 ratio” value came out at 1 ratio.

As for B6, the “Binding to PAR1 ratio” value was 1.1 ratio.

As to B7, the “Binding to PAR1 ratio” value is 1 ratio.

The target of the next assay is T3, hPAR3 (Biotin). As to the kind of experiment: ELISA, hybridoma supernatant.
Take B4: the “Binding to PAR3 ratio” value was determined as 0.9 ratio.

As to B5, the “Binding to PAR3 ratio” value was found to be 0.8 ratio.

As to B2, the “Binding to PAR3 ratio” value amounted to 1 ratio.

With B3, the “Binding to PAR3 ratio” value amounted to 0.9 ratio.

On to B6, for which the “Binding to PAR3 ratio” value came to 0.8 ratio.

For the molecule B7, the “Binding to PAR3 ratio” value is 0.9 ratio.

The next assay deals with T1, hPAR4 (Biotin). The assay is described as follows: SPR (Bio-Rad ProteOn XPR36), biotinylated peptide captured, antibody as analyte.
Turning to B1, the Kd was roughly 0.4 nM.

The target in the next assay is T4, hPAR2 (Biotin). The assay is described as follows: ELISA, biotinylated peptides on streptavidin plate. How it is done: (§1) Biotinylated peptides (hPAR1-4) were diluted in Wash buffer and allowed to bind to the blocked Streptavidin coated wells at 10 ug/ml (100 ul per well) for 1 hour at room temperature with gentle mixing. Wells were washed 3 times as above and purified anti-hPAR4 mAbs prepared at 10 ug/ml in Wash buffer were allowed to bind (100 ul/well) for 1 hour at room temperature with gentle mixing. The plate was washed 3 times as above and anti-mouse Fc conjugated to Alkaline phosphatase (AP) at 0.3 ug/ml (100 ul) was added to the wells for 1 hour as above. Wells were washed 3 times as above and developed with Alkaline Phosphatase substrate as described for the screening supernatant ELISA.
(§2) To further characterise the purified anti-hPAR4 mAb's the specificity of the mAbs to hPAR1, hPAR2, hPAR3 and hPAR4 biotinylated peptides was performed.
On to B1, for which the binding result was “no binding (tested: 10 ug/ml)”.

For B2, the binding result is recorded as “no binding (tested: 10 ug/ml)”.

Turning to B3, the binding result is listed as “no binding (tested: 10 ug/ml)”.

The target in a further assay is T2, hPAR1 (Biotin). The assay is described as follows: ELISA, biotinylated peptides on streptavidin plate. The procedure: as §1, §2
Take B1: the binding result is on record as “no binding (tested: 10 ug/ml)”.

For B2, the binding result is listed as “no binding (tested: 10 ug/ml)”.

On to B3, for which the binding result is on record as “no binding (tested: 10 ug/ml)”.

A further assay has as its target T3, hPAR3 (Biotin). The assay is described as follows: ELISA, biotinylated peptides on streptavidin plate. How it is done: as §1, §2
Take B1: the binding result is listed as “no binding (tested: 10 ug/ml)”.

Consider B2, for which the binding result is “no binding (tested: 10 ug/ml)”.

With B3, the binding result is recorded as “no binding (tested: 10 ug/ml)”.

A further assay has as its target T5, human PAR4 on isolated human platelets. The assay is described as follows: flow cytometry on isolated human platelets. A general note: Flow cytometry measures light scatter and fluorescence of single cells or particles in a stream.
For the molecule B8, the “Binding to human platelets, FACS GMFI at 10 ug/ml (over isotype control)” value (“Binding … (over isotype control)” below) is 33 GMFI.

Regarding B1, the “Binding … (over isotype control)” value is 39 GMFI.

As for B9, the “Binding … (over isotype control)” value came to 53 GMFI.

For the molecule B10, the “Binding … (over isotype control)” value turned out to be 100 GMFI.

Take B11: the “Binding … (over isotype control)” value was found to be 25 GMFI.

Values taken from patent US20210179707A1 (published 2021).
